Results on four substances are retold here after PMC509406.

The target in test [1] is rabbit actin (Cytoskeleton, catalog #AKL95) (rabbit) (UniProt P68135).
The target in a further test is emerin (Homo sapiens) (UniProt P50402). The conditions noted are these: cited from earlier work.
For test [2], the target named is rabbit actin (Cytoskeleton, catalog #AKL95) (rabbit) (UniProt P68135). This is another data set of the same source.
The target of test [3] is F-actin (Oryctolagus cuniculus) (UniProt P68135). The conditions noted are these: cited from earlier work.

Chain of tropomodulin (P28289 whole entry): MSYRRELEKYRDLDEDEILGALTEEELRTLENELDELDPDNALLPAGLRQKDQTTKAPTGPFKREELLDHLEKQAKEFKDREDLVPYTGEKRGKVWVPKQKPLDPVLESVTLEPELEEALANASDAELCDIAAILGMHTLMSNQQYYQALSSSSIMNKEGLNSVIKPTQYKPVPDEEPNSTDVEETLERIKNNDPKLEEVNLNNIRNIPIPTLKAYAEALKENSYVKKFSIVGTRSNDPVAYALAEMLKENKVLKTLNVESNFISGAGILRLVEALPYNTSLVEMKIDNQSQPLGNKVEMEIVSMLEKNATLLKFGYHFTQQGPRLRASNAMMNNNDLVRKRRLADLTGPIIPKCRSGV
Chain of LAP2β (P42167 whole entry): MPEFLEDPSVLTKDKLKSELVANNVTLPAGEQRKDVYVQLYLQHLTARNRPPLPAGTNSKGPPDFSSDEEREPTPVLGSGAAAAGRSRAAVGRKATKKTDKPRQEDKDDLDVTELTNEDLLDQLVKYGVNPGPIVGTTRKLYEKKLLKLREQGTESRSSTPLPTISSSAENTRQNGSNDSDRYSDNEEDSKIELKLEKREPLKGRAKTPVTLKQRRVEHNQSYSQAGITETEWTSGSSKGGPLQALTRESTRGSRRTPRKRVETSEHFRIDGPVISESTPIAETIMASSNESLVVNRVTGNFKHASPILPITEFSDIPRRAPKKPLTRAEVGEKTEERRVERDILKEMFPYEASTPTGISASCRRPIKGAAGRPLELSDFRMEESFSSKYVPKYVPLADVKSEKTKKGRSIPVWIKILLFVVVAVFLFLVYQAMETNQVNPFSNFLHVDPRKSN
Chain of emerin (Homo sapiens) (P50402 whole entry): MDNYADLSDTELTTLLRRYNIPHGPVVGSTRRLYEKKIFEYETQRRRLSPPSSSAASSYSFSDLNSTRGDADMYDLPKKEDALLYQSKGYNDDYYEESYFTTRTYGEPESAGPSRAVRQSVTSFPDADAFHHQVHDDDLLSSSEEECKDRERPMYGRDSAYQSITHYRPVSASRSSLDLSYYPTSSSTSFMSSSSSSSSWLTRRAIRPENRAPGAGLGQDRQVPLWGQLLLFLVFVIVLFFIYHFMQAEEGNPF

The substance “LAP2β (from UniProt P42167 1-454) (natural protein)” gave an actin polymerization assays (data not shown), activity against emerin (fold less active than emerin) in test [1] of 20.
As a reminder, the Kd is the equilibrium constant for the complex coming apart. Consider nesprin-1α (from UniProt Q8NF91), for which, in the test with emerin (Homo sapiens), the Kd was 4 nM.
In test [2], “tropomodulin (from UniProt P28289 1-359) (natural protein)” yielded a length of green (pointed-end growth) segments on rhodamine–phalloidin filaments capped with capping protein, 1 μM tropomodulin of 0.09 μm and a length of growing (green) segments on filaments formed from gelsolin–actin seeds, 1 μM tropomodulin of 0.1 μm.
For the substance tropomodulin (from UniProt P28289), the dissociation constant Kd in test [3] was 110 nM.
